US10941182 (Amgen, dated 2021)
Starred links: 1 amine or outer side, 2 acyl side, 3 side chain; linkers in the order of their positions; H or OH if unused. Non-standard residues stand in square brackets, D forms with d. *: point of attachment. AC4Abu = α-carboxy-4-aminobutyric acid, O=C(C(CCN[*:1])C(=O)[*:3])[*:2]; Oic = O=C(O)[C@@H]1C[C@@H]2CCCC[C@@H]2N1; Phe(4-Cl) = N[C@@H](Cc1ccc(Cl)cc1)C(=O)O; dPhe(4-Cl) = N[C@H](Cc1ccc(Cl)cc1)C(=O)O; γGlu = O=C(O)[C@H](CCC(=O)[*:2])N[*:1]; 2Nal = N[C@@H](Cc1ccc2ccccc2c1)C(=O)O; NMeR = CN[C@@H](CCCNC(=N)N)C(=O)O; Tridecanoyl = CCCCCCCCCCCCC(=O)*; hArg = N=C(N)NCCCC[C@H](N)C(=O)O; Cha = N[C@@H](CC1CCCCC1)C(=O)O; Tle = CC(C)(C)[C@H](N)C(=O)O; β3hP = O=C(O)C[C@@H]1CCCN1; Nle = CCCC[C@H](N)C(=O)O; Deg = CCC(N)(CC)C(=O)O; AEEA = NCCOCCOCC(=O)O; βAla = NCCC(=O)O; BLys = β-lysine

T1: human APJ receptor (human, UniProt P35414 1-380)
T1 sequence (looked up): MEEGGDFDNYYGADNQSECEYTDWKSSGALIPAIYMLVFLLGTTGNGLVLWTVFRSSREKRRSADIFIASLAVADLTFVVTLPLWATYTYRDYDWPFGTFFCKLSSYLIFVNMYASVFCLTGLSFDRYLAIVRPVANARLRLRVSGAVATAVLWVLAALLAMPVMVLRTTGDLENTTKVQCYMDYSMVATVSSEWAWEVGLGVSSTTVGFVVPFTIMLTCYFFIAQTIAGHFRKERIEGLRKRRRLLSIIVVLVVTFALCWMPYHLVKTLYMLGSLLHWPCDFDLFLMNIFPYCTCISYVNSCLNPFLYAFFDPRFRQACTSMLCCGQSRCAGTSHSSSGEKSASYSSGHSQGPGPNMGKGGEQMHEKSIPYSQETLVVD

T2: rat APJ receptor (rat, UniProt Q9JHG3 1-377)
T2 sequence (looked up): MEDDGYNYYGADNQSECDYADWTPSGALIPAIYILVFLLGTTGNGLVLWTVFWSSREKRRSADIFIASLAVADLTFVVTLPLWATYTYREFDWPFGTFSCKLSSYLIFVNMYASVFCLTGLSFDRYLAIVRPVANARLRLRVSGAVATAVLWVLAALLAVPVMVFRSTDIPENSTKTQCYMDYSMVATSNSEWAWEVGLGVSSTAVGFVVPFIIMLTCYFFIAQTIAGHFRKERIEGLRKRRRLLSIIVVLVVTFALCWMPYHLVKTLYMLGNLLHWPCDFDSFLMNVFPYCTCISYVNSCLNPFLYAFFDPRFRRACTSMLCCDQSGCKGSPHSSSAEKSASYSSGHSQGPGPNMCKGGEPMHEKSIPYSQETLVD


How the values were obtained:
[1] = biological target: T1, human APJ receptor; assay: cell-based or functional assay
[2] = biological target: T2, rat APJ receptor; assay: cell-based or functional assay

EC50 Human APJ Receptor (GTPγS assay) [1]	EC50 Rat APJ Receptor (GTPγS assay) [2]	Binder
11.2 nM	31.6 nM	Tridecanoyl-[γGlu][AEEA][AEEA][dQ][hArg]P[dR][Cha]S[Deg]KG[Oic][Nle]P[Phe(4-Cl)]-OH (SMILES CCCCCCCCCCCCC(=O)N[C@@H](CCC(=O)NCCOCCOCC(=O)NCCOCCOCC(=O)N[C@H](CCC(N)=O)C(=O)N[C@@H](CCCCNC(=N)N)C(=O)N1CCC[C@H]1C(=O)N[C@H](CCCNC(=N)N)C(=O)N[C@@H](CC1CCCCC1)C(=O)N[C@@H](CO)C(=O)NC(CC)(CC)C(=O)N[C@@H](CCCCN)C(=O)NCC(=O)N1[C@H](C(=O)N[C@@H](CCCC)C(=O)N2CCC[C@H]2C(=O)N[C@@H](Cc2ccc(Cl)cc2)C(=O)O)C[C@@H]2CCCC[C@@H]21)C(=O)O) [Apelin polypeptide SEQ ID NO: 451]
6.92 nM	4.67 nM	Tridecanoyl-[γGlu][AEEA][AEEA][dQ][hArg]P[dR][Cha]SHK[Tle][Oic][Nle]P[Phe(4-Cl)]-OH [Apelin polypeptide SEQ ID NO: 371]
5.75 nM	13.8 nM	Tridecanoyl-[AC4Abu][AEEA][AEEA]Q[hArg]P[NMeR][Cha]SHKG[Oic][Nle]P[2Nal]-OH (SMILES CCCCCCCCCCCCC(=O)NCCC(C(=O)O)C(=O)NCCOCCOCC(=O)NCCOCCOCC(=O)N[C@@H](CCC(N)=O)C(=O)N[C@@H](CCCCNC(=N)N)C(=O)N1CCC[C@H]1C(=O)N(C)[C@@H](CCCNC(=N)N)C(=O)N[C@@H](CC1CCCCC1)C(=O)N[C@@H](CO)C(=O)N[C@@H](Cc1c[nH]cn1)C(=O)N[C@@H](CCCCN)C(=O)NCC(=O)N1[C@H](C(=O)N[C@@H](CCCC)C(=O)N2CCC[C@H]2C(=O)N[C@@H](Cc2ccc3ccccc3c2)C(=O)O)C[C@@H]2CCCC[C@@H]21) [Apelin polypeptide SEQ ID NO: 405]
3.27 nM	3.96 nM	Tridecanoyl-[γGlu][AEEA][AEEA][dQ][hArg]P[dR][Cha]SHKG[Oic][Nle]P[Phe(4-Cl)]-OH [Apelin polypeptide SEQ ID NO: 363]
1.97 nM	3.75 nM	Tridecanoyl-[γGlu][AEEA][AEEA]Q[hArg]P[NMeR][Cha]SHKG[Oic][Nle]P[Phe(4-Cl)]-OH (SMILES CCCCCCCCCCCCC(=O)N[C@@H](CCC(=O)NCCOCCOCC(=O)NCCOCCOCC(=O)N[C@@H](CCC(N)=O)C(=O)N[C@@H](CCCCNC(=N)N)C(=O)N1CCC[C@H]1C(=O)N(C)[C@@H](CCCNC(=N)N)C(=O)N[C@@H](CC1CCCCC1)C(=O)N[C@@H](CO)C(=O)N[C@@H](Cc1c[nH]cn1)C(=O)N[C@@H](CCCCN)C(=O)NCC(=O)N1[C@H](C(=O)N[C@@H](CCCC)C(=O)N2CCC[C@H]2C(=O)N[C@@H](Cc2ccc(Cl)cc2)C(=O)O)C[C@@H]2CCCC[C@@H]21)C(=O)O) [Apelin polypeptide SEQ ID NO: 362]
10.4 nM	25 nM	Tridecanoyl-[γGlu][AEEA][AEEA][dQ][hArg]P[dR][Cha]S[Tle]KG[Oic][Nle]P[Phe(4-Cl)]-OH (SMILES CCCCCCCCCCCCC(=O)N[C@@H](CCC(=O)NCCOCCOCC(=O)NCCOCCOCC(=O)N[C@H](CCC(N)=O)C(=O)N[C@@H](CCCCNC(=N)N)C(=O)N1CCC[C@H]1C(=O)N[C@H](CCCNC(=N)N)C(=O)N[C@@H](CC1CCCCC1)C(=O)N[C@@H](CO)C(=O)N[C@H](C(=O)N[C@@H](CCCCN)C(=O)NCC(=O)N1[C@H](C(=O)N[C@@H](CCCC)C(=O)N2CCC[C@H]2C(=O)N[C@@H](Cc2ccc(Cl)cc2)C(=O)O)C[C@@H]2CCCC[C@@H]21)C(C)(C)C)C(=O)O) [Apelin polypeptide SEQ ID NO: 452]
2.84 nM	1.5 nM	Tridecanoyl-[γGlu][AEEA][AEEA][dQ][hArg]P[dR][Cha]SAKG[Oic][Nle]P[Phe(4-Cl)]-OH (SMILES CCCCCCCCCCCCC(=O)N[C@@H](CCC(=O)NCCOCCOCC(=O)NCCOCCOCC(=O)N[C@H](CCC(N)=O)C(=O)N[C@@H](CCCCNC(=N)N)C(=O)N1CCC[C@H]1C(=O)N[C@H](CCCNC(=N)N)C(=O)N[C@@H](CC1CCCCC1)C(=O)N[C@@H](CO)C(=O)N[C@@H](C)C(=O)N[C@@H](CCCCN)C(=O)NCC(=O)N1[C@H](C(=O)N[C@@H](CCCC)C(=O)N2CCC[C@H]2C(=O)N[C@@H](Cc2ccc(Cl)cc2)C(=O)O)C[C@@H]2CCCC[C@@H]21)C(=O)O) [Apelin polypeptide SEQ ID NO: 372]
0.496 nM	0.807 nM	Tridecanoyl-[γGlu][AEEA][AEEA][dQ][hArg]P[NMeR][Cha]SHKG[Oic][Nle]P[Phe(4-Cl)]-OH (SMILES CCCCCCCCCCCCC(=O)N[C@@H](CCC(=O)NCCOCCOCC(=O)NCCOCCOCC(=O)N[C@H](CCC(N)=O)C(=O)N[C@@H](CCCCNC(=N)N)C(=O)N1CCC[C@H]1C(=O)N(C)[C@@H](CCCNC(=N)N)C(=O)N[C@@H](CC1CCCCC1)C(=O)N[C@@H](CO)C(=O)N[C@@H](Cc1c[nH]cn1)C(=O)N[C@@H](CCCCN)C(=O)NCC(=O)N1[C@H](C(=O)N[C@@H](CCCC)C(=O)N2CCC[C@H]2C(=O)N[C@@H](Cc2ccc(Cl)cc2)C(=O)O)C[C@@H]2CCCC[C@@H]21)C(=O)O) [Apelin polypeptide SEQ ID NO: 478]

Continued, binder first:

Binder	EC50 Human APJ Receptor (GTPγS assay) [1]	EC50 Rat APJ Receptor (GTPγS assay) [2]
Tridecanoyl-[γGlu][AEEA][AEEA][dQ][hArg]P[NMeR][Cha]SH[BLys]G[Oic][Nle]P[dPhe(4-Cl)]-OH [Apelin polypeptide SEQ ID NO: 306]	74.1 nM	136 nM
Tridecanoyl-[γGlu][AEEA][AEEA]Q[hArg]P[NMeR]LSHKG[Oic][Nle]P[Phe(4-Cl)]-OH (SMILES CCCCCCCCCCCCC(=O)N[C@@H](CCC(=O)NCCOCCOCC(=O)NCCOCCOCC(=O)N[C@@H](CCC(N)=O)C(=O)N[C@@H](CCCCNC(=N)N)C(=O)N1CCC[C@H]1C(=O)N(C)[C@@H](CCCNC(=N)N)C(=O)N[C@@H](CC(C)C)C(=O)N[C@@H](CO)C(=O)N[C@@H](Cc1c[nH]cn1)C(=O)N[C@@H](CCCCN)C(=O)NCC(=O)N1[C@H](C(=O)N[C@@H](CCCC)C(=O)N2CCC[C@H]2C(=O)N[C@@H](Cc2ccc(Cl)cc2)C(=O)O)C[C@@H]2CCCC[C@@H]21)C(=O)O) [Apelin polypeptide SEQ ID NO: 354]	0.279 nM	0.361 nM
Tridecanoyl-[γGlu][AEEA][AEEA][dQ][hArg]P[NMeR][Cha]SHKG[Oic][Nle][β3hP][dPhe(4-Cl)]-OH (SMILES CCCCCCCCCCCCC(=O)N[C@@H](CCC(=O)NCCOCCOCC(=O)NCCOCCOCC(=O)N[C@H](CCC(N)=O)C(=O)N[C@@H](CCCCNC(=N)N)C(=O)N1CCC[C@H]1C(=O)N(C)[C@@H](CCCNC(=N)N)C(=O)N[C@@H](CC1CCCCC1)C(=O)N[C@@H](CO)C(=O)N[C@@H](Cc1c[nH]cn1)C(=O)N[C@@H](CCCCN)C(=O)NCC(=O)N1[C@H](C(=O)N[C@@H](CCCC)C(=O)N2CCC[C@H]2CC(=O)N[C@H](Cc2ccc(Cl)cc2)C(=O)O)C[C@@H]2CCCC[C@@H]21)C(=O)O) [Apelin polypeptide SEQ ID NO: 296]	2.75 nM	2.32 nM
Tridecanoyl-[γGlu][AEEA][AEEA][dQ][hArg]P[NMeR][Cha]SHK[βAla][Oic][Nle]P[dPhe(4-Cl)]-OH (SMILES CCCCCCCCCCCCC(=O)N[C@@H](CCC(=O)NCCOCCOCC(=O)NCCOCCOCC(=O)N[C@H](CCC(N)=O)C(=O)N[C@@H](CCCCNC(=N)N)C(=O)N1CCC[C@H]1C(=O)N(C)[C@@H](CCCNC(=N)N)C(=O)N[C@@H](CC1CCCCC1)C(=O)N[C@@H](CO)C(=O)N[C@@H](Cc1c[nH]cn1)C(=O)N[C@@H](CCCCN)C(=O)NCCC(=O)N1[C@H](C(=O)N[C@@H](CCCC)C(=O)N2CCC[C@H]2C(=O)N[C@H](Cc2ccc(Cl)cc2)C(=O)O)C[C@@H]2CCCC[C@@H]21)C(=O)O) [Apelin polypeptide SEQ ID NO: 294]	> 4170 nM	30.7 nM
XXXQRPRLSHKGPXPF ({TDA}[AC4Abu][Aeea][Aeea]Q[hArg]P[NMeArg]LSHKGP[Nle]P[4-Cl-F]{COOH}) [Apelin polypeptide SEQ ID NO: 353]	0.095 nM	0.275 nM
Tridecanoyl-[γGlu][AEEA][AEEA][dQ][hArg]P[NMeR][Cha]SHKG[Oic][Nle][βAla][dPhe(4-Cl)]-OH (SMILES CCCCCCCCCCCCC(=O)N[C@@H](CCC(=O)NCCOCCOCC(=O)NCCOCCOCC(=O)N[C@H](CCC(N)=O)C(=O)N[C@@H](CCCCNC(=N)N)C(=O)N1CCC[C@H]1C(=O)N(C)[C@@H](CCCNC(=N)N)C(=O)N[C@@H](CC1CCCCC1)C(=O)N[C@@H](CO)C(=O)N[C@@H](Cc1c[nH]cn1)C(=O)N[C@@H](CCCCN)C(=O)NCC(=O)N1[C@H](C(=O)N[C@@H](CCCC)C(=O)NCCC(=O)N[C@H](Cc2ccc(Cl)cc2)C(=O)O)C[C@@H]2CCCC[C@@H]21)C(=O)O) [Apelin polypeptide SEQ ID NO: 295]	3.29 nM	10.4 nM
